From patent publication US20090215991A1

What was measured:
[1] = target: extracellular region of human V158 FcγRIIIa with C-terminal 6xHis-tag and GST-tag (human) (UniProt P08637); assay: SPR
[2] = target: FcγRIIIa on human PBMCs expressing heterozygous V158/F158 FcγRIIIa (human) (UniProt P08637); assay: cell-based or functional assay
Sequence of FcγRIIIa on human PBMCs expressing heterozygous V158/F158 FcγRIIIa (human) (P08637 17-254): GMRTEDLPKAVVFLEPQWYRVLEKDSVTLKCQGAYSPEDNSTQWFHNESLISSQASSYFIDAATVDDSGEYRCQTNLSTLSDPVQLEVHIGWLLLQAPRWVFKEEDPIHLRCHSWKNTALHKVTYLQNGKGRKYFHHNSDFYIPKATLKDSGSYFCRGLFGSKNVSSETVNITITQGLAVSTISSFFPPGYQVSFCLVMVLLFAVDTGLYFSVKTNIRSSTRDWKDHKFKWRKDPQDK

Sequence of extracellular region of human V158 FcγRIIIa with C-terminal 6xHis-tag and GST-tag (human) (P08637 17-208 F176V): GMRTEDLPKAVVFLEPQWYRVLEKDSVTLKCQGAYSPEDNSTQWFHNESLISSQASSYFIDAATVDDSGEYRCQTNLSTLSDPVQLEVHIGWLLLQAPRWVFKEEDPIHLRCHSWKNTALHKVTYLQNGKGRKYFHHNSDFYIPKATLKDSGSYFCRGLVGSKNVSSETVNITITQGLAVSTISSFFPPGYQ

## S304T alemtuzumab (antibody)
[1]
  Fold WT: 12.8 fold

## E272R alemtuzumab (antibody)
[1]
  Fold WT: 1.38 fold

## S239D/I332E alemtuzumab (antibody)
[2]
  ADCC log(EC50), DoHH-2 target cells: 0.49 log(ng/ml)

## E283H alemtuzumab (antibody)
[1]
  Fold WT: 2.31 fold

## V264I/I332E alemtuzumab (antibody)
[2]
  ADCC log(EC50), DoHH-2 target cells: 0.6 log(ng/ml)

## V284E alemtuzumab (antibody)
[1]
  Fold WT: 1.51 fold
